*1 amine or outer side, *2 acyl side, *3 side chain or, on linkers, in order; H or OH if unused. Where no end group is shown, it is not given here. Side-chain parts run from the residue outwards. [ ]: non-standard residue; d: D form. The star is where a group is joined. C16 diacid = O=C(O)CCCCCCCCCCCCCCC(=O)*; γGlu = O=C(O)[C@H](CCC(=O)[*:2])N[*:1]; C14 diacid = O=C(O)CCCCCCCCCCCCC(=O)*; NMeI = CC[C@H](C)[C@H](NC)C(=O)O; Api = NC1(C(=O)O)CCNCC1; AEEA = NCCOCCOCC(=O)O; Aib = CC(C)(N)C(=O)O
B1: SEQ ID NO 173 (peptide)
peptide: Ac-IVLSLD[dV]PIKLK([AEEA-AEEA-γGlu-C14 diacid])KILLEQEKQK[Aib]QREQAETN[Api]QILAQV-NH2
SMILES: CC[C@H](C)[C@H](NC(C)=O)C(=O)N[C@H](C(=O)N[C@@H](CC(C)C)C(=O)N[C@@H](CO)C(=O)N[C@@H](CC(C)C)C(=O)N[C@@H](CC(=O)O)C(=O)N[C@@H](C(=O)N1CCC[C@H]1C(=O)N[C@H](C(=O)N[C@@H](CCCCN)C(=O)N[C@@H](CC(C)C)C(=O)N[C@@H](CCCCNC(=O)COCCOCCNC(=O)COCCOCCNC(=O)CC[C@H](NC(=O)CCCCCCCCCCCCC(=O)O)C(=O)O)C(=O)N[C@@H](CCCCN)C(=O)N[C@H](C(=O)N[C@@H](CC(C)C)C(=O)N[C@@H](CC(C)C)C(=O)N[C@@H](CCC(=O)O)C(=O)N[C@@H](CCC(N)=O)C(=O)N[C@@H](CCC(=O)O)C(=O)N[C@@H](CCCCN)C(=O)N[C@@H](CCC(N)=O)C(=O)N[C@@H](CCCCN)C(=O)NC(C)(C)C(=O)N[C@@H](CCC(N)=O)C(=O)N[C@@H](CCCNC(=N)N)C(=O)N[C@@H](CCC(=O)O)C(=O)N[C@@H](CCC(N)=O)C(=O)N[C@@H](C)C(=O)N[C@@H](CCC(=O)O)C(=O)N[C@H](C(=O)N[C@@H](CC(N)=O)C(=O)NC1(C(=O)N[C@@H](CCC(N)=O)C(=O)N[C@H](C(=O)N[C@@H](CC(C)C)C(=O)N[C@@H](C)C(=O)N[C@@H](CCC(N)=O)C(=O)N[C@H](C(N)=O)C(C)C)[C@@H](C)CC)CCNCC1)[C@@H](C)O)[C@@H](C)CC)[C@@H](C)CC)C(C)C)C(C)C
B2: SEQ ID NO 171 (peptide)
peptide: Ac-IVLSLD[dV]PIKLK([AEEA-AEEA-γGlu-C14 diacid])KILLEQEKQKKQREQAETN[Aib]QILAQV-NH2
SMILES: CC[C@H](C)[C@H](NC(C)=O)C(=O)N[C@H](C(=O)N[C@@H](CC(C)C)C(=O)N[C@@H](CO)C(=O)N[C@@H](CC(C)C)C(=O)N[C@@H](CC(=O)O)C(=O)N[C@@H](C(=O)N1CCC[C@H]1C(=O)N[C@H](C(=O)N[C@@H](CCCCN)C(=O)N[C@@H](CC(C)C)C(=O)N[C@@H](CCCCNC(=O)COCCOCCNC(=O)COCCOCCNC(=O)CC[C@H](NC(=O)CCCCCCCCCCCCC(=O)O)C(=O)O)C(=O)N[C@@H](CCCCN)C(=O)N[C@H](C(=O)N[C@@H](CC(C)C)C(=O)N[C@@H](CC(C)C)C(=O)N[C@@H](CCC(=O)O)C(=O)N[C@@H](CCC(N)=O)C(=O)N[C@@H](CCC(=O)O)C(=O)N[C@@H](CCCCN)C(=O)N[C@@H](CCC(N)=O)C(=O)N[C@@H](CCCCN)C(=O)N[C@@H](CCCCN)C(=O)N[C@@H](CCC(N)=O)C(=O)N[C@@H](CCCNC(=N)N)C(=O)N[C@@H](CCC(=O)O)C(=O)N[C@@H](CCC(N)=O)C(=O)N[C@@H](C)C(=O)N[C@@H](CCC(=O)O)C(=O)N[C@H](C(=O)N[C@@H](CC(N)=O)C(=O)NC(C)(C)C(=O)N[C@@H](CCC(N)=O)C(=O)N[C@H](C(=O)N[C@@H](CC(C)C)C(=O)N[C@@H](C)C(=O)N[C@@H](CCC(N)=O)C(=O)N[C@H](C(N)=O)C(C)C)[C@@H](C)CC)[C@@H](C)O)[C@@H](C)CC)[C@@H](C)CC)C(C)C)C(C)C
B3: SEQ ID NO 172 (peptide)
peptide: Ac-IVLSLD[dV]PIKLK([AEEA-AEEA-γGlu-C14 diacid])KILLEQEKQKKQREQAETN[Api]QILAQV-NH2
SMILES: CC[C@H](C)[C@H](NC(C)=O)C(=O)N[C@H](C(=O)N[C@@H](CC(C)C)C(=O)N[C@@H](CO)C(=O)N[C@@H](CC(C)C)C(=O)N[C@@H](CC(=O)O)C(=O)N[C@@H](C(=O)N1CCC[C@H]1C(=O)N[C@H](C(=O)N[C@@H](CCCCN)C(=O)N[C@@H](CC(C)C)C(=O)N[C@@H](CCCCNC(=O)COCCOCCNC(=O)COCCOCCNC(=O)CC[C@H](NC(=O)CCCCCCCCCCCCC(=O)O)C(=O)O)C(=O)N[C@@H](CCCCN)C(=O)N[C@H](C(=O)N[C@@H](CC(C)C)C(=O)N[C@@H](CC(C)C)C(=O)N[C@@H](CCC(=O)O)C(=O)N[C@@H](CCC(N)=O)C(=O)N[C@@H](CCC(=O)O)C(=O)N[C@@H](CCCCN)C(=O)N[C@@H](CCC(N)=O)C(=O)N[C@@H](CCCCN)C(=O)N[C@@H](CCCCN)C(=O)N[C@@H](CCC(N)=O)C(=O)N[C@@H](CCCNC(=N)N)C(=O)N[C@@H](CCC(=O)O)C(=O)N[C@@H](CCC(N)=O)C(=O)N[C@@H](C)C(=O)N[C@@H](CCC(=O)O)C(=O)N[C@H](C(=O)N[C@@H](CC(N)=O)C(=O)NC1(C(=O)N[C@@H](CCC(N)=O)C(=O)N[C@H](C(=O)N[C@@H](CC(C)C)C(=O)N[C@@H](C)C(=O)N[C@@H](CCC(N)=O)C(=O)N[C@H](C(N)=O)C(C)C)[C@@H](C)CC)CCNCC1)[C@@H](C)O)[C@@H](C)CC)[C@@H](C)CC)C(C)C)C(C)C
B4: SEQ ID NO 176 (peptide)
peptide: [NMeI]VLSLD[dV]PIKLK([γGlu-C14 diacid])KILLEQEKQKAQREQAETN[Aib]QILAQV-NH2
modifications: N-terminus assumed
SMILES: CC[C@H](C)[C@H](NC)C(=O)N[C@H](C(=O)N[C@@H](CC(C)C)C(=O)N[C@@H](CO)C(=O)N[C@@H](CC(C)C)C(=O)N[C@@H](CC(=O)O)C(=O)N[C@@H](C(=O)N1CCC[C@H]1C(=O)N[C@H](C(=O)N[C@@H](CCCCN)C(=O)N[C@@H](CC(C)C)C(=O)N[C@@H](CCCCNC(=O)CC[C@H](NC(=O)CCCCCCCCCCCCC(=O)O)C(=O)O)C(=O)N[C@@H](CCCCN)C(=O)N[C@H](C(=O)N[C@@H](CC(C)C)C(=O)N[C@@H](CC(C)C)C(=O)N[C@@H](CCC(=O)O)C(=O)N[C@@H](CCC(N)=O)C(=O)N[C@@H](CCC(=O)O)C(=O)N[C@@H](CCCCN)C(=O)N[C@@H](CCC(N)=O)C(=O)N[C@@H](CCCCN)C(=O)N[C@@H](C)C(=O)N[C@@H](CCC(N)=O)C(=O)N[C@@H](CCCNC(=N)N)C(=O)N[C@@H](CCC(=O)O)C(=O)N[C@@H](CCC(N)=O)C(=O)N[C@@H](C)C(=O)N[C@@H](CCC(=O)O)C(=O)N[C@H](C(=O)N[C@@H](CC(N)=O)C(=O)NC(C)(C)C(=O)N[C@@H](CCC(N)=O)C(=O)N[C@H](C(=O)N[C@@H](CC(C)C)C(=O)N[C@@H](C)C(=O)N[C@@H](CCC(N)=O)C(=O)N[C@H](C(N)=O)C(C)C)[C@@H](C)CC)[C@@H](C)O)[C@@H](C)CC)[C@@H](C)CC)C(C)C)C(C)C
B5: SEQ ID NO 175 (peptide)
peptide: Ac-IVLSLD[dV]PIKLK([AEEA-AEEA-γGlu-γGlu-C14 diacid])KILLEQEKQKKQREQAETN[Api]QILAQV-NH2
SMILES: CC[C@H](C)[C@H](NC(C)=O)C(=O)N[C@H](C(=O)N[C@@H](CC(C)C)C(=O)N[C@@H](CO)C(=O)N[C@@H](CC(C)C)C(=O)N[C@@H](CC(=O)O)C(=O)N[C@@H](C(=O)N1CCC[C@H]1C(=O)N[C@H](C(=O)N[C@@H](CCCCN)C(=O)N[C@@H](CC(C)C)C(=O)N[C@@H](CCCCNC(=O)COCCOCCNC(=O)COCCOCCNC(=O)CC[C@H](NC(=O)CC[C@H](NC(=O)CCCCCCCCCCCCC(=O)O)C(=O)O)C(=O)O)C(=O)N[C@@H](CCCCN)C(=O)N[C@H](C(=O)N[C@@H](CC(C)C)C(=O)N[C@@H](CC(C)C)C(=O)N[C@@H](CCC(=O)O)C(=O)N[C@@H](CCC(N)=O)C(=O)N[C@@H](CCC(=O)O)C(=O)N[C@@H](CCCCN)C(=O)N[C@@H](CCC(N)=O)C(=O)N[C@@H](CCCCN)C(=O)N[C@@H](CCCCN)C(=O)N[C@@H](CCC(N)=O)C(=O)N[C@@H](CCCNC(=N)N)C(=O)N[C@@H](CCC(=O)O)C(=O)N[C@@H](CCC(N)=O)C(=O)N[C@@H](C)C(=O)N[C@@H](CCC(=O)O)C(=O)N[C@H](C(=O)N[C@@H](CC(N)=O)C(=O)NC1(C(=O)N[C@@H](CCC(N)=O)C(=O)N[C@H](C(=O)N[C@@H](CC(C)C)C(=O)N[C@@H](C)C(=O)N[C@@H](CCC(N)=O)C(=O)N[C@H](C(N)=O)C(C)C)[C@@H](C)CC)CCNCC1)[C@@H](C)O)[C@@H](C)CC)[C@@H](C)CC)C(C)C)C(C)C

Experiments:
[1] = target: human corticotropin-releasing factor 2a (CRF2a receptor) (human), Q13324; test: cell-based or functional assay
Sequence of human corticotropin-releasing factor 2a (CRF2a receptor) (human), Q13324 (Q13324 20-411): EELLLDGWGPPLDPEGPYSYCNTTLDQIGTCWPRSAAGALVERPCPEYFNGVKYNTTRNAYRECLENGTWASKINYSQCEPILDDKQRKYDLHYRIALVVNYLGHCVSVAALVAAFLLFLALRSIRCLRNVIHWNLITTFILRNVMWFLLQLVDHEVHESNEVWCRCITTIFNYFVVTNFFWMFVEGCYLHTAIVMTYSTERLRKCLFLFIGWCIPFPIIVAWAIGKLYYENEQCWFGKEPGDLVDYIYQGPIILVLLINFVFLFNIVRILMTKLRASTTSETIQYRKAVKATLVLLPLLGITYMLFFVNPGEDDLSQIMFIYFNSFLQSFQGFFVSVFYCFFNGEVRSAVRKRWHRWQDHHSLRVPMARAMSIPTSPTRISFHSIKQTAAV

[2] = target: T1, CRF1R receptor (UniProt P34998 24-415, limits assumed); test: cell-based or functional assay
T1 sequence (looked up): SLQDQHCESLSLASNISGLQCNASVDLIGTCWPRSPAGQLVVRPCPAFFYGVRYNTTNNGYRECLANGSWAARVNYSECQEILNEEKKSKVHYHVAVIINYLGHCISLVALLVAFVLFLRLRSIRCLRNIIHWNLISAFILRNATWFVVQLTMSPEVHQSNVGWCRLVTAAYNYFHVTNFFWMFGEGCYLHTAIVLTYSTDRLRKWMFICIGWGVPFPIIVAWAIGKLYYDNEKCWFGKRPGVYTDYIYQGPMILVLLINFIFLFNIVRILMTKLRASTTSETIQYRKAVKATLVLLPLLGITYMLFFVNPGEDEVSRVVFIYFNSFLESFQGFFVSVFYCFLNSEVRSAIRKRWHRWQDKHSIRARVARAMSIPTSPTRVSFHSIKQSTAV

Row | EC50 [nM] (cAMP) [1] | Emax (% I) [2] [%] | EC50 [2] [µM] | Binder
1 | 28.1 | -1 |  | B1
2 | 16.2 | 11 | > 0.25 | Ac-IVLSLD[dV]PIKLK([AEEA-γGlu-γGlu-C14 diacid])KILLEQEKQKKQREQAETN[Aib]QILAQV-NH2 [SEQ ID NO 174]
3 | 5.79 | 0 |  | B2
4 | 0.16 | 27 | > 0.25 | Ac-VLSLD[dV]PIKLK([γGlu-C16 diacid])QILLKQERQKKQREQAEKNKQILEQV-NH2 [SEQ ID NO 3]
5 | 16.1 | -6 |  | B3
6 | 0.99 | 8 |  | B4
7 | 18.9 | 5 |  | B5

Reference: US20260001928A1 (CORTERIA PHARMACEUTICALS, priority 2022, published 2026)
